# From the nanobody polyreactivity screen of Harvey et al. (2022)
# Assay: yeast display, Sf9 membrane polyspecificity reagent, FACS + sequencing; frameworks hold sequencing errors
# Summary of the method: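 A nanobody's polyreactivity label depends on the gate it was sorted from. Yeast display cells were stained with 10% biotinylated, detergent-solubilized Sf9 membrane reagent for 1 hour at 4 °C, enriched on streptavidin microbeads and sorted by FACS. The low and high (top ~1%) gates were set on anti-HA fluorescence for expression and streptavidin fluorescence for reagent binding.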
row,Sequence,polyreactivity (PSR sort gate)
1,QVQLVESGGGLVQAGGSLRLSCAASGRTFYTNGMGWYRQAPGKEREFVAGITYRGGGTYYADSVKGRFTISRDNAKNTVYLQMNSLKPEDTAVYYCNTRWILGRRFYYWGQGTQVTVSS,high polyreactivity
2,QVQLVESGGGLVQAGGSLRLSCAASGSIFYINDAMGWYRQPPGKERELVAAISSSDGTTYYADSVKGRFTISRDNAKNTVYLQMNSLKPEDTAGYYCAAETRAVGYDGDYWGQGTQVTVSS,high polyreactivity
3,QFQLVESGGGLVQAGGSLRLSCAASGYIFLRNAMGCYRQAHGKERELVAAIRLTGGSTYYADSVKGRFTISRDNAKNTVYLQMNSLKPEDTAVYYCAKRSYTGYEYWGQGTQVTVSS,low polyreactivity
4,QVQLVESGGGLVQAGGSLRLSCAASGRTFYFYPMGWYRQAPGKERELVAAIRSSGGSTNYADSVKGRFTISRDNAKNTVYLQMNSLKPEDTAVYYFAAKRRAKGNYAFYYWGQGTQVTVSS,high polyreactivity
5,QVQLVESGGGLVQAGGSLRLSWAASGSIFQYVYAMGWYRQAPGKERELVATITWSGGSTYYSDSVKGRFTISRDNAKNTVYLQMNSLKPEDTAVYYCAAESIYYPVAQYYYSFEYWGQGTQVTVSS,low polyreactivity
6,QVQHVESGGGLVQAGGSLRLSCAASGITLNSYAMGWYRQAPGTERELVAAISSDGTYYADSVKGRFTISRDNAKNTVYLQMNSLKPEDTAVYYCAAERNHGLVGSESVGRNDYWGQGTQVTVSS,low polyreactivity
7,QVQLVESGGGLVQAGGSLRLSCAASGSIFDVNTMGWYRQAPGKERELVAAITNGDRTNYADSVKGRFTISRDNAKNTVYLQMNSLKPEDTAVYYCNTDQGTTSDYGYWGQGTQVTVSS,low polyreactivity
8,QVELVESGGGLVQAGGSLRLSCAASGRISYLYTMGWYRQAPGKERELFAASRWRDGSTYYADSVKGRFTISRDNAKTTVYLQMNSLKPEDTAVYFCGATPVGFYWYDYWGQGTQVTVSS,low polyreactivity
9,QVQLVESGGGLVQAGGSLRLSCAASGSTFGRYAMGWYRQAPGKERELVAAISRGTTTNYADSVKGRFTISRDNAKNTVYLQMNILKPEDTAVYYCAAQTDSVESDYWGQGTQVTVSS,low polyreactivity
10,QVQLVESGGGLVQAGGSLRLSCAASGSIFVPYAMGWYRQAPGKERELVAAISSRGGRTYYADSVKGRFTISRDNPKNTVYLQMNSLKPEDTAVYYCNKTAGSHIPRLEYWGQGTQVTVSS,low polyreactivity
11,QVQIVESVGGLVQAGGSLRLSCAASGRTFPYYAKGRYRQAPGKEREMVATISTADSTYYADSVKGRFTISRDNAKNTVYLQMNRLITEATEVYYCAKDRYTYWSVHAFRRLDYWGQGTQLTVSS,low polyreactivity
12,KVQLVESGGGLVQAGGSLRLSCAASGSIFDLYTMGWYRQAPGKERELVATISSGGSTNYADSVKGRFTISRDNAKNTVNLQMNSLKPEDTAVYYCAAGSTHYDIHFDYWGQGTQVTVSS,low polyreactivity
13,QLQLQESGGGLVQAGGSLRLSCAASGPITRRSTMGWYRQAPRKVRELVTAITRGTNTNYADSVKGRFTISRDNAKNTEYLQMNSLKPEDTAVYYCAAYGVLKPSRGDAVFLRYLGQGTQVTVSS,low polyreactivity
14,QVQLVESGGGLVQAGGSLRLSCAASGRIFRVNAMGWYRQAPGKERELVAAISWIGGRTYYADSVKGRFTISRDNAKNTVYLQMNSQKPEDTAVYYCAAVGSSSTHWASRSYRYNYWGQGTQVTVSS,high polyreactivity
15,QVQLVESGGGLVQAGGSLRLSCAASGSIFDPYAMGWYRQAPGKERELVAGISFSGGRTYYADSVKGRFTISRDNAKNTVYLQMNSLKPEDTAVYYCNKLLTQGAYPYYFWGQGTQVTVSS,high polyreactivity
16,QVQLVESGGGLVQAGGSLRLSCAASGFIFFGYAMGWYRQAPGKERELVAAITSGGSTYYADSVKGRFTISRDNAKNTVYLQMNSLKPEDTAVYYCAAVRWYGSKRYGYWGQGTQVTVSS,high polyreactivity
17,QVQLVESGGGFVQAGGSLRLSCAASGRIFLTNAMGWYRQAPGKERELVAAITSGGSTYYADSVKGRFTISRDNAKNTVYLQMNSLKPEDPAVYYCNADTDRYSPYEYDFWGQGTQVTVSS,low polyreactivity
18,QVQLVESGGGLVQAGGSLRLSCAASGSIFSNYAMGWYRQAPGKERELVAAITLSSGGTYYADSVKGRFTISRDNAKNTVYLQMNSLKPEDTAVYYCAAQYKYFKHRYYYWGQGTQVTVSS,high polyreactivity
19,QVQLVESGGGLVQAGGSLRLSCAASGIIFEYYAKGWYRQAPGKERELVAAITSDGSTNYADSVKGRFTISRDNEKNTVYLQMNRLKPEDTAVYYCNADLKANIQGVLSTGDDYWGQGTQVTVSS,low polyreactivity
20,QVQLVESGGGLVQAGCSLRISCSASGRTFIGYAMGSYRQAPGKERELVAAICRSGGSTYYADSVKGRFTISRDNAKNTVYLQMNSLKPEDTAVYYCAKQRRDDNGGYWGQATQVTVSS,high polyreactivity

row,Sequence,polyreactivity (PSR sort gate)
1,QVQLVESGGGLVQAGGSLRLSCAASGSIFRRYAMGWYRQAPGKERELVAGISSGGYTNYADSVKGRFTISRDNAKNTVYLQMNSLKPEDTAVYYCAAKQYRYVRYRPVDYWGQGTQVTVSS,high polyreactivity
2,QVQLVESGGGLVQAGGSLRLSCAASGFIFFAYAMGWYRQAPGKERELVAAISSSGTRTYYADSVKGRFTISRDNAKNTVYLQMNSLKPEDTAVYYCARYIPVYTREREYNYWGQGTQVTVSS,high polyreactivity
3,QVQLVESGGGLVQAGGSLRLSCAASGFTLSAYAMGLYRQAPGKERELVAGNSYTGGRTYYADSVKGRFTISRDNAKNTFYLQLISLKPEDTAVDYCAAALYSDVDAVATYGYYWGEGTQVTVSS,low polyreactivity
4,QVQLVESGGGLVQAGGSLRLSCAASGFIFTQYAMGWYRQAPGKERELVAAITRSGGRTYYADSVKGRFTISRDNAKNTVYLQMNSLIPEDTAVYYCAVDTVTRTVLVYGDRNDSWGQGTQVTVSS,high polyreactivity
5,QVQLVESGGGLVQAGGSLRLSCAASGRIFSYAMGWYRQAPGKERELVAAITRRGSTYYADSVKGRFTISRDNAKNTVYLQMKSLKPEDTAVYYCAADIYYSRTFYPMGYWGQGTQVTVSS,high polyreactivity
6,QVQLVESGGGLVQAGGSLRLSCAASGRTFYSYAMGWYRQAPGKERELVAAISGRGGRTYYADSVKGRFTISRDNAKNTVYLQMNSLKPEDTAVYYCAKGGYAIRYYGFDYWGQGTQVTVSS,high polyreactivity
7,QVQLVESGGGLVQAGGSLRLSCAASGSIFYGYAMGWYRQAPGKERELVAAISRGGSTYADSVKGRFTISRDNAKNTVYLQMNSLKPEDTAVYYCARRYWNCPLRGWYGYWGQGTQVTVSS,high polyreactivity
8,QVQLVESGGGLVQAGGSLRLSCAASGFTFNGYAMGWYRQAPGKERELVAGITRRGGITYYADSVKGRFTISRDNAKNTVYLQMNSLNPEDTAVYYCNAYPRYIIPSIVNGYNYWGQGTQVTVSS,high polyreactivity
9,QVHLQESGSGLVQAGGSLRLSCAASGAIFPAYLMGWYRQAPGKERELVAGSSYGSITYCADSVKGRFNISRDNAKNTVYLQMNSLKPEDTAVYYCAVLRPGGDEYYYWGQGTKVTVSS,low polyreactivity
10,QVQVVESGGGLVQAGGSLRLSCAASGFIFLRYDMGWYRQAPGKERELVAAINGNGGSTYYADSVKGRFTISRDNAKNTFYLQMNSLKPEDTAVYYCNARRRTYARNYGYWGHGTQVTVSS,high polyreactivity
11,QVQLEESGGGVVQAGGSLRLSCAASGGIFNVYVMGWYRQAPGKERELVAAITWRGGSTYYADSVKGRFTISRDNAKNTVYLQMNSLKPEDTAVYYCNADAPFQSSSDGYQVEYWGQGTQVTVSS,low polyreactivity
12,QVQLVESGGGLVQAGGSLRLSCAASGSTFGSYTKGWSRPAPGQERELVAAINWSGGNTYYADSVKGRFTISRDNAKNTVYLQMTSLKREDTAVYYCAAAFYIYGVEGDYWGQGTQVTVSS,low polyreactivity
13,QVQLVESGGGLVQAGGSLRLSCAASGFTFYSYAMGWYRQAPGKEREFVAAGSTYYADSVKGRFTISRGNAKNTVYLQMNSLKPEDTAVYYCAADPWIYVQSYGYWGQGTQVTVSS,low polyreactivity
14,QVQLVESGGGLVQAGGSLRLSCAASVRIFRGNDMGWYRKAPGKERELVARITGNDGDTYYADSVKGRFTISRDNAKNTVYLQMNSLKPEDTAVYYCATDTSSYRRRYYYWGQGTQVTVSS,low polyreactivity
15,QVQLVESGGGLVQAGGSLRLSCAASGSIFSFNAMGRSRQAPGKERELVASITSGGSTNYADSVKGRFTISRDNAKNTVYLQMNSLKPEDTEVYYCNARFPYLSRWLVRGLASYDYWGQGTQVTVSS,low polyreactivity
16,QVQPVESVGGLVQAGGSLRLSGAASGSIFAVYAMRWYRQPPGNERELVARITRGGGSTYYADSVKGRVTISRDNAKNTVYLQMNSLKPEDTAVYYCAAARRSQYRTWMNYWGQGTQVTVSS,high polyreactivity
17,QDQHVESVGGLVQAGGRLRLSSAASGLIFFDSPMVSDRQAPGKERELVAAISTTGGSTYYADSVKGRCTISRDNAKNSVYLEMNSLKPEDTAVYYCNARFVHHSWGTNYYWGQGTQVTVSS,high polyreactivity
18,QVQLVESGGGLVQAGGSLRLSCAASGSTFSGYAMGWYRQAPGKERELVAAITLGGGSTYYADSVKGRFTISRDNAKNTVYLQMNSLKPEDTAVYYCAAGDIYYAEYDYWGQGTQVTVSS,low polyreactivity
19,QVQLVESGGGLVQAGGSLRLSCAASGSIFTFYAMGWYRQAPGKERELVAAISYRGGSTYYADSVKGRFTISRDNAKNTVYLQMNSLKPEDTAVYYCAAARFPVFIQGYRMEYWGQGTQVTVSS,low polyreactivity
20,QVRLVESGGGLVQEGGSLRLSCAASGSTFGDYPMGWYRQAPGKERELVAAITLTGGSTYYADSVKGRFTISRDNAKNTVYLQMNSLKPEDTAVYYCNTDVIRWVGGTWHRYYYWGQGTQVTVSS,low polyreactivity
